Measured values taken from IntAct's records for PubMed 28698298.

B1: Eukaryotic translation initiation factor 4E type 2 (Homo sapiens), O60573-1 (parent)
chain: MNNKFDALKDDDSGDHDQNEENSTQKDGEKEKTERDKNQSSSKRKAVVPGPAEHPLQYNYTFWYSRRTPGRPTSSQSYEQNIKQIGTFASVEQFWRFYSHMVRPGDLTGHSDFHLFKEGIKPMWEDDANKNGGKWIIRLRKGLASRCWENLILAMLGEQFMVGEEICGAVVSVRFQEDIISIWNKTASDQATTARIRDTLRRVLNLPPNTIMEYKTHTDSIKMPGRLGPQRLLFQNLWKPRLNVP
partner: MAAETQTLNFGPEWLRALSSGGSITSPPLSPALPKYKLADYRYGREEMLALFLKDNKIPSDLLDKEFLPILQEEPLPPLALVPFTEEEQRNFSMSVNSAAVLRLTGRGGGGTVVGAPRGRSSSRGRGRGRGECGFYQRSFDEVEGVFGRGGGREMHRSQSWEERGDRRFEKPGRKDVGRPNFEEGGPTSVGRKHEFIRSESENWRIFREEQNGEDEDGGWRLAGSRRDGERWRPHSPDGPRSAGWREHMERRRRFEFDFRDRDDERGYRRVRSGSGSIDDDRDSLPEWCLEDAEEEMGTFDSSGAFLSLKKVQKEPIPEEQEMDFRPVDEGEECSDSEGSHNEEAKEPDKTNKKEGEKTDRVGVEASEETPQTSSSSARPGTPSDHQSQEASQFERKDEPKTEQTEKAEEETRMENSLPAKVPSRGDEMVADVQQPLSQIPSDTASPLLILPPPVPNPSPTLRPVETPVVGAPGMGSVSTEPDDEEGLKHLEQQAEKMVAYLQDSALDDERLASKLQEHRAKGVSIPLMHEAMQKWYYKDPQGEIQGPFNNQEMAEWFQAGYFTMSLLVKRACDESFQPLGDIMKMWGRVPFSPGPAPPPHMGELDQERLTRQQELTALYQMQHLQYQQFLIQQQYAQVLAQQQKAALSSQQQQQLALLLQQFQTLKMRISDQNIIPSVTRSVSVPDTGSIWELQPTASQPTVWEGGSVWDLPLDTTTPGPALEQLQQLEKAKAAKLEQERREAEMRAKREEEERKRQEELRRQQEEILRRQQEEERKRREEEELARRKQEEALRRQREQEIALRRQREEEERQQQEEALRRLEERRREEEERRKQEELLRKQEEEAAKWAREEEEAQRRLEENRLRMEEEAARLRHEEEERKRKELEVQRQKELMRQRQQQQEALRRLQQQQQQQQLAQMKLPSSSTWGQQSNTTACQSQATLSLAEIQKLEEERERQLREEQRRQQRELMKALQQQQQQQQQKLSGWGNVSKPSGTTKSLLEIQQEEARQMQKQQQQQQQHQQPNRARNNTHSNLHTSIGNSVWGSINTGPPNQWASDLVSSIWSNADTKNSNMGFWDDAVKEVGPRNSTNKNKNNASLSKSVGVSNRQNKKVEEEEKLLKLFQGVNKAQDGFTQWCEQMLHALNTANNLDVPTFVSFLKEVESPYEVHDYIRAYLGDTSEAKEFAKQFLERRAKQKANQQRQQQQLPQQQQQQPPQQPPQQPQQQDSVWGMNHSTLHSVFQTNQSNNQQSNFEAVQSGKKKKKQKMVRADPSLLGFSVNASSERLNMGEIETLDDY
B2: Eukaryotic translation initiation factor 4E type 2 (Homo sapiens), O60573-1 (parent)
chain: B1 chain
B3: GRB10-interacting GYF protein 2 (Homo sapiens), Q6Y7W6 (parent)
chain: B1 partner

Variants of: B1
Settings: with GIGYF2, Q6Y7W6-1

| effect of a mutation on the interaction | Variant |
| --- | --- |
| with no effect | MNNKFDALKDDDSGDHDQNEENSTQKDGEKEKTERDKNQSSSKRKAVVPGPAEHPLQYNYTFWYSRRTPGRPTSSQSYEQNIKQAGTFASVEQFWRFYSHAVRPGDLTGHSDFHLFKEGIKPMWEDDANKNGGKWIIRLRKGLASRCWENLILAMLGEQFMVGEEICGAVVSVRFQEDIISIWNKTASDQATTARIRDTLRRVLNLPPNTIMEYKTHTDSIKMPGRLGPQRLLFQNLWKPRLNVP [I85A;M101A] |
| with no effect | MNNKFDALKDDDSGDHDQNEENSTQKDGEKEKTERDKNQSSSKRKAVVPGPAEHPLQYNYTFWYSRRTPGRPTSSQSYEQNIKQIGTFASVEQFARFYSHMVRPGDLTGHSDFHLFKEGIKPMWEDDANKNGGKWIIRLRKGLASRCWENLILAMLGEQFMVGEEICGAVVSVRFQEDIISIWNKTASDQATTARIRDTLRRVLNLPPNTIMEYKTHTDSIKMPGRLGPQRLLFQNLWKPRLNVP [W95A] |

Variants of: B1
Settings: with GIGYF2, Q6Y7W6-1
Remark: another data set of the same source

| effect of a mutation on the interaction | Variant |
| --- | --- |
| decreasing interaction strength | MNNKFDALKDDDSGDHDQNEENSTQKDGEKEKTERDKNQSSSKRKAVVPGPAEHPLQYNYTFWYSRRTPGRPTSSQSYEQNIKQAGTFASVEQFWRFYSHAVRPGDLTGHSDFHLFKEGIKPMWEDDANKNGGKWIIRLRKGLASRCWENLILAMLGEQFMVGEEICGAVVSVRFQEDIISIWNKTASDQATTARIRDTLRRVLNLPPNTIMEYKTHTDSIKMPGRLGPQRLLFQNLWKPRLNVP [I85A;M101A] |
| decreasing interaction strength | MNNKFDALKDDDSGDHDQNEENSTQKDGEKEKTERDKNQSSSKRKAVVPGPAEHPLQYNYTFWYSRRTPGRPTSSQSYEQNIKQIGTFASVEQFARFYSHMVRPGDLTGHSDFHLFKEGIKPMWEDDANKNGGKWIIRLRKGLASRCWENLILAMLGEQFMVGEEICGAVVSVRFQEDIISIWNKTASDQATTARIRDTLRRVLNLPPNTIMEYKTHTDSIKMPGRLGPQRLLFQNLWKPRLNVP [W95A] |

Variants of: B1
Settings: with ggyf2_human GIGYF2, Q6Y7W6

| effect of a mutation on the interaction | Variant |
| --- | --- |
| decreasing interaction strength | MNNKFDALKDDDSGDHDQNEENSTQKDGEKEKTERDKNQSSSKRKAVVPGPAEHPLQYNYTFWYSRRTPGRPTSSQSYEQNIKQAGTFASVEQFWRFYSHAVRPGDLTGHSDFHLFKEGIKPMWEDDANKNGGKWIIRLRKGLASRCWENLILAMLGEQFMVGEEICGAVVSVRFQEDIISIWNKTASDQATTARIRDTLRRVLNLPPNTIMEYKTHTDSIKMPGRLGPQRLLFQNLWKPRLNVP [I85A;M101A] |
| disrupting interaction strength | MNNKFDALKDDDSGDHDQNEENSTQKDGEKEKTERDKNQSSSKRKAVVPGPAEHPLQYNYTFWYSRRTPGRPTSSQSYEQNIKQIGTFASVEQFWRFYSHMVLPGDLTGHSDFHLFKEGIKPMWEDDANKNGGKWIIRLRKGLASRCWLNLILAMLGEQFMVGEEICGAVVSVRFQEDIISIWNKTASDQATTARIRDTLRRVLNLPPNTIMEYKTHTDSIKMPGRLGPQRLLFQNLWKPRLNVP [R103L;E149L] |
| disrupting interaction strength | MNNKFDALKDDDSGDHDQNEENSTQKDGEKEKTERDKNQSSSKRKAVVPGPAEHPLQYNYTFWYSRRTPGRPTSSQSYEQNIKQIGTFASVEQFARFYSHMVRPGDLTGHSDFHLFKEGIKPMWEDDANKNGGKWIIRLRKGLASRCWENLILAMLGEQFMVGEEICGAVVSVRFQEDIISIWNKTASDQATTARIRDTLRRVLNLPPNTIMEYKTHTDSIKMPGRLGPQRLLFQNLWKPRLNVP [W95A] |

Variants of: B1
Settings: with GIGYF2, Q6Y7W6-1
Remark: another data set of the same source

| effect of a mutation on the interaction | Variant |
| --- | --- |
| with no effect | MNNKFDALKDDDSGDHDQNEENSTQKDGEKEKTERDKNQSSSKRKAVVPGPAEHPLQYNYTFWYSRRTPGRPTSSQSYEQNIKQIGTFASVEQFWRFYSHMVRPGDLTGHSDFHLFKEGIKPMWEDDANKNGGKWIIRLRKGLASRCWENLILAMLGESFDVGEEICGAVVSVRFQEDIISIWNKTASDQATTARIRDTLREVLNLPPNTIMEYKTHTDSIKMPGRLGPQRLLFQNLWKPRLNVP [Q159S;M161D;R202E] |

Variants of: B2
Settings: with 4ebp1_human EIF4EBP1, Q13541
4ebp1_human EIF4EBP1, Q13541, sequence (Q13541 whole entry): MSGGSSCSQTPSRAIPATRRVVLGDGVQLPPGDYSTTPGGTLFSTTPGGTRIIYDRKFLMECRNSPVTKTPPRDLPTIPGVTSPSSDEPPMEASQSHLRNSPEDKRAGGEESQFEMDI

| effect of a mutation on the interaction | Variant |
| --- | --- |
| disrupting interaction strength | MNNKFDALKDDDSGDHDQNEENSTQKDGEKEKTERDKNQSSSKRKAVVPGPAEHPLQYNYTFWYSRRTPGRPTSSQSYEQNIKQIGTFASVEQFARFYSHMVRPGDLTGHSDFHLFKEGIKPMWEDDANKNGGKWIIRLRKGLASRCWENLILAMLGEQFMVGEEICGAVVSVRFQEDIISIWNKTASDQATTARIRDTLRRVLNLPPNTIMEYKTHTDSIKMPGRLGPQRLLFQNLWKPRLNVP [W95A] |
| disrupting interaction strength | MNNKFDALKDDDSGDHDQNEENSTQKDGEKEKTERDKNQSSSKRKAVVPGPAEHPLQYNYTFWYSRRTPGRPTSSQSYEQNIKQAGTFASVEQFWRFYSHAVRPGDLTGHSDFHLFKEGIKPMWEDDANKNGGKWIIRLRKGLASRCWENLILAMLGEQFMVGEEICGAVVSVRFQEDIISIWNKTASDQATTARIRDTLRRVLNLPPNTIMEYKTHTDSIKMPGRLGPQRLLFQNLWKPRLNVP [I85A;M101A] |

Variants of: B2
Settings: with 4ebp1_human EIF4EBP1, Q13541
Remark: another data set of the same source

| effect of a mutation on the interaction | Variant |
| --- | --- |
| increasing interaction strength | MNNKFDALKDDDSGDHDQNEENSTQKDGEKEKTERDKNQSSSKRKAVVPGPAEHPLQYNYTFWYSRRTPGRPTSSQSYEQNIKQIGTFASVEQFWRFYNHMVRPGDLTGHSDFHLFKEGIKPMWEDDANKNGGKWIIRLRKGLASRCWENLILAMLGEQFMVGEEICGAVVSVRFQEDIISIWNKTASDQATTARIRDTLRRVLNLPPNTIMEYKTHTDSIKMPGRLGPQRLLFQNLWKPRLNVP [S99N] |

Variants of: B3
Settings: with EIF4E2, O60573-1

| effect of a mutation on the interaction | Variant |
| --- | --- |
| with no effect | E46A;E47F;Q89A |

Variants of: B3
Settings: with EIF4E2, O60573-1
Remark: another data set of the same source

| effect of a mutation on the interaction | Variant |
| --- | --- |
| with no effect | E46A;E47F;Q89A |

Variants of: B3
Settings: with EIF4E2, O60573-1
Remark: another data set of the same source

| effect of a mutation on the interaction | Variant |
| --- | --- |
| disrupting interaction strength | Y41A;Y43A;M48A;L49A |
